*: point of attachment. Biotin = O=C1N[C@H]2[C@H](CS[C@H]2CCCCC(=O)*)N1; linker = not defined here
B1: Fab317 (Fab, V domains shown)
VH: QMQLVESGGGVVQPGRSLRLSCTASGFTFSTYAMHWVRQSPGQGLQWVAVISYHSTNKYYEDSVRGRFTISRDNSKNTLYLQMNSLRAEDTAVYYCARDGYSSSFFDFWGQGTLVTVSS
VL: DIQMTQSPSTLSASVGDRVAITCRASQSISRWLAWYQQQPGKAPKLLMSGASVLESGVPSRFSGSGSGTEFTLTISSLQPDDFATYYCQHYNSYFVTFGQGTKVEIK
notes: Fab heavy chain; in the cited structure of Fab317, PDB 6AXL; Fab light chain; NANP-only antibody used for comparison; source: purified
B2: Fab667 (Fab, V domains shown)
VH: QVQLVQSGAEVKKPGASVKVSCRASGYTFTNYAMHWVRQAPGQRLEWMGWINAGNGYTKYSQKFQDRVTITRDTSATTAYMELSSLRSEDTAMYYCARDSFYDILSGPVYHYYGMDVWGQGTTVTVSS
VL: QSALTQPDSVSGSPGQSITISCTGTSNDVGIYNHVSWYQQHPGKAPKLMIYDVNKRPSGISNRFSGSKSGDTASLTISGLQAEDEADYYCCSYAGSSAWVFGGGTKLTVL
notes: Fab heavy chain; germline VH1-3*01; CDR H3 of 19 residues; lambda light chain; germline Vλ2-23*02; source: purified
B3: Fab668 (Fab, V domains shown)
VH: QVQLVQSGAEVKKPGASVKVSCKASGFTFTDYAMHWVRQAPGQRLEWMGWINAGNGYTKYSQKFQDRLTITRDTFASTVYMELSSLRSEDTTVYYCARDGFCPSNTCSGYYGMDVWGQGTTVTVSS
VL: QSALTQPASVSGSPGQSITISCTGTSSDVGSYNYVSWYQQHPGKAPKLMIYDVNTRPSGVSIRFSASKSGNTASLTVSGLQAEDEAVYYCSSYAGSSTWVFGGGTKLTVL
notes: Fab heavy chain; germline VH1-3*01; CDR H3 of 17 residues with a disulfide between Cys98 and Cys100C; lambda light chain; germline Vλ2-23*02; source: purified
B4: Fab317 (Fab, V domains shown)
VH: B1 VH
VL: B1 VL
notes: heavy chain of Fab317 in the cited crystal structure PDB 6AXL; light chain of Fab317 in the cited crystal structure PDB 6AXL; also called mAb317 (as IgG)
B5: Fab668 (Fab, V domains shown)
VH: B3 VH
VL: B3 VL
notes: Germline genes VH1-3*01 and Vlambda2-23*02; CDR H3 of 17 residues; also called mAb668 (as IgG)
B6: Fab667 (Fab, V domains shown)
VH: B2 VH
VL: B2 VL
notes: Germline genes VH1-3*01 and Vlambda2-23*02; CDR H3 of 19 residues; also called mAb667 (as IgG)

Tests used:
Details in all cases: both partners purified
[1] = target: T1, Biotin-linker-NPNANPNANPNANPNA-NH2 (NPNA)4 (Plasmodium falciparum, reading uncertain; also: biotin-linker structure not given here, printed as Biotin-linker-NPNANPNANPNANPNA-NH2 (NPNA)4); assay: BLI; biotinylated peptide captured on streptavidin sensors, dipped into serial dilutions of Fab in Kinetics buffer (Dulbecco's PBS, 0.002% Tween20, 0.01% BSA), 25 °C, Octet Red
T1 construct: four NPNA repeats of the central NANP repeat region of the Plasmodium falciparum circumsporozoite protein (PfCSP); The linker between biotin and peptide is not described; also called NANP peptide; called (NPNA)3 in the results on BLI; source: synthetic peptide, bought: Innopep Inc
T1 chain: {Biotin-linker}-NPNANPNANPNANPNA-NH2

[2] = target: T2, Biotin-linker-KQPADGNPDPNANPNV-NH2 (Junc) (Plasmodium falciparum, reading uncertain; also: biotin-linker structure not given here, printed as Biotin-linker-KQPADGNPDPNANPNV-NH2 (Junc)); assay: as above
T2 construct: junctional region of the Plasmodium falciparum circumsporozoite protein (PfCSP), end of the N-terminal domain and first repeats; numbers count on: the peptide (K1-V16); The linker between biotin and peptide is not described; also called junctional peptide; source: synthetic peptide, bought: Innopep Inc
T2 chain: {Biotin-linker}-KQPADGNPDPNANPNV-NH2

[3] = target: T3, Ac-NPNANPNANPNA-NH2 [(NPNA)3] (Plasmodium falciparum 3D7); assay: crystal structure; Fab at 11 mg/mL in TBS with a 5:1 molar ratio of peptide to Fab, crystals grown at 293 K
T3 construct: three NPNA repeats of the central NANP repeat region of the Plasmodium falciparum circumsporozoite protein (PfCSP); numbers count on: the peptide (N1-A12); also called (NPNA)3 peptide; source: synthetic peptide, bought: Innopep Inc., 98% purity
T3 chain: Ac-NPNANPNANPNA-NH2

[4] = target: T4, Ac-KQPADGNPDPNANP-NH2 (Junc) (Plasmodium falciparum 3D7); assay: as above
T4 construct: junctional region of the Plasmodium falciparum circumsporozoite protein (PfCSP); numbers count on: the peptide (K1-P14); also called junctional peptide for crystallography; source: synthetic peptide, bought: Innopep Inc., 98% purity
T4 chain: Ac-KQPADGNPDPNANP-NH2

[5] = target: T5, Biotin-linker-NPNANPNANPNANPNA-NH2 (NPNA)4 (Plasmodium falciparum, reading uncertain; also: biotin-linker structure not given here, printed as Biotin-linker-NPNANPNANPNANPNA-NH2 (NPNA)4); assay: BLI; Octet Red; biotinylated peptide (10 ug/mL) captured on streptavidin sensors, dipped into serial dilutions of Fab in Kinetics buffer (Dulbecco's PBS, 0.002% Tween20, 0.01% BSA); 25 C; Fab667-Junc fitted to a biphasic binding model; errors are fitting errors
T5 construct: four NPNA repeats of the central repeat region of Plasmodium falciparum circumsporozoite protein (PfCSP); also called NANP peptide; source: synthetic peptide, ordered from Innopep Inc
T5 chain: {Biotin-linker}-NPNANPNANPNANPNA-NH2

[6] = target: T6, Biotin-linker-KQPADGNPDPNANPNV-NH2 (Junc) (Plasmodium falciparum, reading uncertain; also: biotin-linker structure not given here, printed as Biotin-linker-KQPADGNPDPNANPNV-NH2 (Junc)); assay: as above
T6 construct: junctional region between the N-terminal domain and the central repeats of Plasmodium falciparum circumsporozoite protein (PfCSP); also called junctional peptide; source: synthetic peptide, ordered from Innopep Inc
T6 chain: {Biotin-linker}-KQPADGNPDPNANPNV-NH2

| Binder | Kd [1] [nM] | koff [5] [s⁻¹] | kon [5] [M⁻¹ s⁻¹] | Kd [5] [nM] | further results |
| --- | --- | --- | --- | --- | --- |
| B1 | 25 |  |  |  | binding result [2]: no binding (tested: 8000 nM) |
| B2 | 170 |  |  |  | binding result [3]: binds |
| B3 | 56 |  |  |  | Kd [2]: 206 nM; binding result [4]: binds |
| B4 |  | 0.00146 | 58400 |  | binding result [6]: no binding (tested: 8000 nM) |
| B5 |  | 0.00179 | 32200 | 55.6 | koff [6]: 0.00424 s⁻¹; kon [6]: 20600 M⁻¹ s⁻¹ |
| B6 |  | 0.00429 | 24400 | 176 |  |

— publication PMC7082059 (PLoS Pathogens, 2020)
